Results taken from patent publication US20200140562A1 (Innovent, published 2020).

T1: human OX40 on cells (CHO-hOX40, 293HEK-hOX40, Jurkat-hOX40, activated primary CD4+ T cells) (human, UniProt P43489 29-277)
T1 sequence (looked up): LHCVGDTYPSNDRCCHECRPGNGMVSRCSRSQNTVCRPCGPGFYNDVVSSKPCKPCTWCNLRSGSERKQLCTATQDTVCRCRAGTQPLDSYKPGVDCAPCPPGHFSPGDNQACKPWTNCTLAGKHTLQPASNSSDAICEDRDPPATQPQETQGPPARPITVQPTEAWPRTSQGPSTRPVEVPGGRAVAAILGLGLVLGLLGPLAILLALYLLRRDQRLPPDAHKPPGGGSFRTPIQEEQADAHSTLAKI

T2: mouse OX40Fc (Acro Biosystems) (mouse, UniProt P47741 20-211, limits assumed)
T2 construct: Bought; not shown: Fc
T2 sequence (looked up): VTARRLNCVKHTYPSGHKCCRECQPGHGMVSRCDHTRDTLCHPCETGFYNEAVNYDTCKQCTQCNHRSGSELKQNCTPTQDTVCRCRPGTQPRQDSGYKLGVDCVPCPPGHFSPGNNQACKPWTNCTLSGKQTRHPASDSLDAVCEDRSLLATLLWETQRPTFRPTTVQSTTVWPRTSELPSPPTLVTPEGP

B1: ADI-20065, IgG1 format (antibody, V domains shown)
VH: QLQLQESGPGLVKPSETLSLTCTVSGGSISSSSYYWGWIRQPPGKGLEWIGSIYYSGSTYYNPSLKSRVTISVDTSKNQFSLKLSSVTAADTAVYYCARDPGYSASPNWFDPWGQGTLVTVSS
VL: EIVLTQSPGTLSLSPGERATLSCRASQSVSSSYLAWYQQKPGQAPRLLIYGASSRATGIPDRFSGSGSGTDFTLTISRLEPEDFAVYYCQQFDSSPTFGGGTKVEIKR
notes: Made in yeast
B2: ADI-20066, IgG1 format (antibody, V domains shown)
VH: QLQLQESGPGLVKPSETLSLTCTVSGGSISSSSYYWGWIRQPPGKGLEWIGSIYYSGSTYYNPSLKSRVTISVDTSKNQFSLKLSSVTAADTAVYYCARDPGYSASPNWFDPWGQGTLVTVSS
VL: EIVLTQSPGTLSLSPGERATLSCRASQSVSSSFLAWYQQKPGQAPRLLIYGASSRATGIPDRFSGSGSGTDFTLTISRLEPEDFAVYYCQQYDVFPITFGGGTKVEIKR
notes: Made in yeast
B3: ADI-20096, IgG1 format (antibody, V domains shown)
VH: EVQLVESGGGLVKPGGSLRLSCAASGFTFSSYSMNWVRQAPGKGLEWVSSISSSSNYIYYADSVKGRFTISRDNAKNSLYLQMNSLRAEDTAVYYCARGAPLGYSWEYFDLWGRGTLVTVSS
VL: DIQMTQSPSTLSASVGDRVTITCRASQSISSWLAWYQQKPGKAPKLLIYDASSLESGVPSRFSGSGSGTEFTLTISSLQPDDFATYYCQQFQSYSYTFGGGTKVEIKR
notes: Made in yeast
B4: ADI-20113, IgG1 format (antibody, V domains shown)
VH: QVQLVESGGGVVQPGRSLRLSCAASGFTFSSYGMHWVRQAPGKGLEWVAVISYDGSNKYYADSVKGRFTISRDNSKNTLYLQMNSLRAEDTAVYYCARGRPWYSETGTSAFDIWGQGTMVTVSS
VL: EIVMTQSPATLSVSPGERATLSCRASQSVSSNLAWYQQKPGQAPRLLIYSASTRATGIPARFSGSGSGTEFTLTISSLQSEDFAVYYCQQHNVYPPYTFGGGTKVEIKR
notes: Made in yeast
B5: ADI-20048, IgG1 format (antibody, V domains shown)
VH: QVQLQESGPGLVKPSETLSLTCTVSGGSISSYYWSWIRQPPGKGLEWIGYIYSSGSTNYNPSLKSRVTISVDTSKNQFSLKLSSVTAADTAVYYCARDAPGGSSYQDYYMDVWGKGTTVTVSS
VL: EIVLTQSPATLSLSPGERATLSCRASQSVSSYLAWFQQKPGQAPRLLIYDASNRATGIPARFSGSGSGTDFTLTISSLEPEDFAVYYCQQAFSMPPTFGGGTKVEIKR
notes: Made in yeast

Columns and labels:
[1] = molecular target: T1, human OX40 on cells (CHO-hOX40, …); assay: cell-based or functional assay
[2] = molecular target: T1, human OX40 on cells (CHO-hOX40, …); assay: flow cytometry, CHO-hOX40, 100 nM
Experimental: CHO-hOX40 cells (0.2×10⁶ cells) are incubated with the experimental antibody at 100 nM for 30 min in PBS 0.1% BSA on ice. Cells are then washed at least twice, and are incubated with a secondary antibody (PE-labelled, SouthernBiotech, at final concentration of 5 μg/ml) in PBS 0.1% BSA for 30 min on ice (protected from light). Cells are washed at least twice and analysed via flow cytometry. Flow cytometry is performed on a Canto II system (BD Biosciences) and MFIs are calculated accordingly.

[3] = molecular target: T1, human OX40 on cells (CHO-hOX40, …); assay: flow cytometry, 293HEK-hOX40, 8 nM
Experimental: (§1) The binding of an antibody of the present invention to human OX40 may be measured in a flow cytometry assay. […] Cells are then washed at least twice, and are incubated with a secondary antibody (PE-labelled, SouthernBiotech, at final concentration of 5 μg/ml) in PBS 0.1% BSA for 30 min on ice (protected from light). Cells are washed at least twice and analysed via flow cytometry. Flow cytometry is performed on an Accuri C6 system (BD Biosciences) and MFIs are calculated accordingly.

[4] = molecular target: T1, human OX40 on cells (CHO-hOX40, …); assay: flow cytometry, 293HEK-hOX40, 40 nM
Experimental: as §1

[5] = molecular target: T1, human OX40 on cells (CHO-hOX40, …); assay: flow cytometry, 293HEK-hOX40, 1.6 nM
Experimental: as §1

[6] = molecular target: T1, human OX40 on cells (CHO-hOX40, …); assay: flow cytometry, 293HEK-hOX40, 200 nM
Experimental: as §1

[7] = molecular target: T3, human OX40_Fc (R&D Systems) (human, UniProt P43489 29-216); assay: BLI, IgG1 on tip, hOX40-Fc 50 nM, avid
T3 construct: Bought
Experimental: (§2) Sensors with loaded antibodies were exposed to 100 nM OX40 antigens for 5 min, afterwards they were transferred to assay buffer for dissociation of 5 min for off-rate measurement. Kinetics was analysed using the 1:1 binding model.

[8] = molecular target: T4, cyno OX40_Fc (Acro Biosystems) (cyno); assay: BLI, IgG1 on tip, cyno OX40-Fc 100 nM, avid
T4 construct: Bought
Experimental: as §2

[9] = molecular target: T2, mouse OX40Fc (Acro Biosystems); assay: BLI, IgG1 on tip, mouse OX40-Fc in solution
[10] = molecular target: T1, human OX40 on cells (CHO-hOX40, …); assay: flow cytometry, MFI on CHO-hOX40 over wild-type CHO
[11] = molecular target: T1, human OX40 on cells (CHO-hOX40, …); assay: flow cytometry, activated CD4+ T cells, donor 1, 100 nM
Experimental: (§3) Primary CD4+ T cells from healthy donors are activated with anti-CD3/CD28 DynaBeads(Invitrogen) for 48 hours and 0.2×10⁶ cells are incubated with the experimental antibody at 100 nM for 30 min in PBS 0.1% BSA on ice. Cells are then washed at least twice, and are incubated with a secondary antibody (PE-labelled, SouthernBiotech, at final concentration of 5 μg/ml) in PBS 0.1% BSA for 30 min on ice (protected from light). Cells are washed at least twice and analysed via flow cytometry. Flow cytometry is performed on an Accuri C6 system (BD Biosciences) and MFIs are calculated accordingly.

[12] = molecular target: T1, human OX40 on cells (CHO-hOX40, …); assay: flow cytometry, activated CD4+ T cells, donor 2, 100 nM
Experimental: as §3

[13] = molecular target: T1, human OX40 on cells (CHO-hOX40, …); assay: flow cytometry, CHO-hOX40, 100 nM blocker, competitor OX40L-hFc-fluorescein
Experimental: Cells are washed 3×. Flow cytometry is performed on an Accuri C6 system (BD Biosciences) and MFIs are calculated on the C6 software.

[14] = molecular target: T2, mouse OX40Fc (Acro Biosystems); assay: BLI, IgG1 on tip, mouse OX40-Fc 100 nM, avid
Experimental: as §2

| Binder | NFkB-Luc fold change in Jurkat stimulated by PHA+ anti-CD28 [1] | NFkB-Luc fold change in Jurkat stimulated by anti-CD3+ anti-CD28 [1] | CHO-OX40 binding intensity (MFI) [2] | MFI [3] | MFI [4] | MFI [5] | MFI [6] | Kd [7] | Kd [8] | binding result [9] | Fold difference [10] | MFI [11] | MFI [12] | MFI of OX40L signal on CHO-OX40 cells [13] | Kd [14] |
| --- | --- | --- | --- | --- | --- | --- | --- | --- | --- | --- | --- | --- | --- | --- | --- |
| B1 | 2.11 fold over IgG4 control | 1.19 fold over IgG4 control | 157000 MFI | 2.46e+06 MFI | 2.42e+06 MFI | 808000 MFI | 3.03e+06 MFI | 0.352 nM | 5.77 nM | no binding (tested: 100 nM) | 2240 fold | 153000 MFI | 209000 MFI | 33700 MFI | – |
| B2 | 2.09 fold over IgG4 control | 1.96 fold over IgG4 control | 161000 MFI | 2.82e+06 MFI | 2.39e+06 MFI | 626000 MFI | 2.55e+06 MFI | 0.91 nM | 14.3 nM | no binding (tested: 100 nM) | 2750 fold | 134000 MFI | 193000 MFI | 32800 MFI | – |
| B3 | 4.57 fold over IgG4 control | 5.12 fold over IgG4 control | 133000 MFI | 1.1e+06 MFI | 1.82e+06 MFI | 417000 MFI | 1.84e+06 MFI | 3.36 nM | – | – | 1970 fold | 54600 MFI | 75400 MFI | 31900 MFI | 5.41 nM |
| B4 | 3.79 fold over IgG4 control | 3.98 fold over IgG4 control | 152000 MFI | 2e+06 MFI | 2.18e+06 MFI | 734000 MFI | 2.41e+06 MFI | 1.22 nM | 5.52 nM | no binding (tested: 100 nM) | 2460 fold | 84400 MFI | 115000 MFI | 24000 MFI | – |
| B5 | 3.63 fold over IgG4 control | 5.77 fold over IgG4 control | 143000 MFI | 1.73e+06 MFI | 1.85e+06 MFI | 977000 MFI | 1.7e+06 MFI | 3.68 nM | 9.86 nM | – | 1470 fold | 43100 MFI | 62600 MFI | 34300 MFI | 3.76 nM |
